Laboratory results: PMC11189301, “Structure of the human outer kinetochore KMN network complex” (Nature Structural & Molecular Biology, 2024)

T1: MIS12 complex (Mis12, Pmf1, Dsn1, Nsl1), wild type, full length (Homo sapiens, UniProt Q9H081 1-205; Q6P1K2 1-205; Q9H410 1-356; Q96IY1 1-281)
T1 construct: Mis12, subunit of human MIS12C; Pmf1, subunit of human MIS12C; Dsn1, subunit of human MIS12C; Nsl1, subunit of human MIS12C; The DS tag on Pmf1 is TEV cleavable; a cleavage is not described; also called MIS12C (WT); wild-type MIS12C; source: High-5 insect cells (baculovirus), purified (Strep-Tactin, Resource S, Superdex 200); copies: + + +
T1 sequence (looked up) 1: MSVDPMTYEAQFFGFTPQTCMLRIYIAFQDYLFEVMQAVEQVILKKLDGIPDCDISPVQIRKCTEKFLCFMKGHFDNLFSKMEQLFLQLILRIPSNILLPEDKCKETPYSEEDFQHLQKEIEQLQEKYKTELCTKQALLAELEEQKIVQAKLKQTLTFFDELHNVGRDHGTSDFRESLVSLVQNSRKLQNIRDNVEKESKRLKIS
T1 sequence (looked up) 2: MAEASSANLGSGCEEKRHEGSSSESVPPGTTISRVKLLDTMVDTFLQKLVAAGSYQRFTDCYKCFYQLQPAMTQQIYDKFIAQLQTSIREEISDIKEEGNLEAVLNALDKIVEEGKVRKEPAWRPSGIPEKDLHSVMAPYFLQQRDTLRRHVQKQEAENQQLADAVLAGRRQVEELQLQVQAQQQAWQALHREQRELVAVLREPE
T1 sequence (looked up) 3: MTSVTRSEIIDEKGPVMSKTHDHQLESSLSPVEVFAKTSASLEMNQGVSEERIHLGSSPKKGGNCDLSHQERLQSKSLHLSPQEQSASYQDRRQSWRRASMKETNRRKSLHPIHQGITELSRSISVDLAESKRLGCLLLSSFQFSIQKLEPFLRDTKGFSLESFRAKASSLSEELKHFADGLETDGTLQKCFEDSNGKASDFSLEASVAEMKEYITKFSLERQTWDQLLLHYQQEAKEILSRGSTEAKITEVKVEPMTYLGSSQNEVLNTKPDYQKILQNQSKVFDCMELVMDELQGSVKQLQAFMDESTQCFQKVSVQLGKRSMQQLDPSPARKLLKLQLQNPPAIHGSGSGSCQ
T1 sequence (looked up) 4: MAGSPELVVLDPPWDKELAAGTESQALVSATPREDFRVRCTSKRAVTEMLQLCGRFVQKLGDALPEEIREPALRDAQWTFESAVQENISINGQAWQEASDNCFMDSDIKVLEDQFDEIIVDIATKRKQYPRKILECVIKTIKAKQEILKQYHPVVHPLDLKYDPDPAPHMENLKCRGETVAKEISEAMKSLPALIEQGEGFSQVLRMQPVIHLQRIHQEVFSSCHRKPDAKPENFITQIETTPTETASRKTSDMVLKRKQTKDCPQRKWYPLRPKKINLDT


What was measured:
[1] = molecular target: T1, MIS12 complex (Mis12, Pmf1, Dsn1, …); assay: SEC; MIS12C or MIS12C^Nsl1ΔC mixed with Knl1 2131–2337 or its mutants at 4 µM each; 20 mM HEPES pH 7.8, 150 mM NaCl, 0.5 mM TCEP; Superose 6; fractions on SDS-PAGE; settings: both partners purified
[2] = system: NDC80C; assay: SEC assessment of MIS12C mutants binding to NDC80C; parameters: species or system Homo sapiens; settings: MIS12C mutant + wild-type NDC80 at 4 µM each; 20 mM HEPES pH 7.8, 150 mM NaCl, 0.5 mM TCEP; Superose 6; SDS-PAGE; at least two repeats
Procedure: Assessment of substitutions in the MIS12C–NDC80C interfaces
To test the effect of substitutions in the MIS12C–NDC80C interfaces, either wild-type MIS12C or three MIS12C mutants (MIS12C^Nsl1-E219R V220R F221A, MIS12C^Dsn1-P332W R334A L336R, MIS12C^Nsl1-E219R V220R F221A, Dsn1-P332W R334A L336R) were mixed with wild-type NDC80 at 4 µM each in a buffer of 20 mM HEPES (pH 7.8), 150 mM NaCl and 0.5 mM TCEP, and 50 µl was loaded onto a Superose 6 size-exclusion column (Cytiva).
Extended Data Fig. 7 Biochemical characterization of MIS12C:NDC80C interactions. a Coomassie blue-stained SDS-PAGE gels of the MIS12C:NDC80C interaction reconstitutions. MIS12C (WT), MIS12C with E219/RV220R/F221A substitutions in Nsl1 (MIS12C^Nsl1 E219/RV220R/F221A) and MIS12C with P332W/R334A/L336R substitutions in Dsn1 (MIS12C^Dsn1 P332W/R334A/L336R) were tested for binding to full-length, unmodified NDC80C. The binding experiments were repeated at least two independent times with identical results. The gels are aligned according to the fraction number of the protein sample eluted from the size exclusion column. b SEC elution chromatograms of all of the experiments described in (a). c. Comparison of the Spc24:Spc25 interaction with peptides from MIS12C and CENP-T (PDB ID: 3VZA ref. [29]). Source data

| binding result [1] | Molecule | MIS12C–NDC80C interaction by SEC, in words [2] |
| --- | --- | --- |
| binds | Knl1 residues 2131–2337, mut2 (S2270R S2272W) (domain or fragment, H. sapiens, UniProt Q8NG31 2131-2337, looked up, Knl1, human, residues 2131-2337, RWD-C surface mutant 2; also called Knl1^mut2; KNL1^mut2; source: E. coli BL21 (DE3), purified (Ni-NTA, reverse IMAC, Superdex 75); not shown: His6, N-terminal, cleaved) SLSEWDVVEWSDDQAVFTFVYDTIQLTITFEESVVGFPFLDKRYRKIVDVNFQSLLDEDQAPPSSLLVHKLIFQYVEEKESWKKTCTTQHQLPKMLEEFSLVVHHCRLLGEEIEYLKRWGPNYNLMNIDINNNELRLLFRSWAAFAKFEITLFLSAYYPSVPLPSTIQNHVGNTSQDDIATILSKVPLENNYLKNVVKQIYQDLFQD |  |
|  | Dsn1-P332W R334A L336R mutant: MIS12C with P332W/R334A/L336R substitutions in Dsn1 (protein, left off: double strep II (DS), C-terminal, state not stated) chain 1: MSVDPMTYEAQFFGFTPQTCMLRIYIAFQDYLFEVMQAVEQVILKKLDGIPDCDISPVQIRKCTEKFLCFMKGHFDNLFSKMEQLFLQLILRIPSNILLPEDKCKETPYSEEDFQHLQKEIEQLQEKYKTELCTKQALLAELEEQKIVQAKLKQTLTFFDELHNVGRDHGTSDFRESLVSLVQNSRKLQNIRDNVEKESKRLKIS chain 2: MAEASSANLGSGCEEKRHEGSSSESVPPGTTISRVKLLDTMVDTFLQKLVAAGSYQRFTDCYKCFYQLQPAMTQQIYDKFIAQLQTSIREEISDIKEEGNLEAVLNALDKIVEEGKVRKEPAWRPSGIPEKDLHSVMAPYFLQQRDTLRRHVQKQEAENQQLADAVLAGRRQVEELQLQVQAQQQAWQALHREQRELVAVLREPE chain 3: MTSVTRSEIIDEKGPVMSKTHDHQLESSLSPVEVFAKTSASLEMNQGVSEERIHLGSSPKKGGNCDLSHQERLQSKSLHLSPQEQSASYQDRRQSWRRASMKETNRRKSLHPIHQGITELSRSISVDLAESKRLGCLLLSSFQFSIQKLEPFLRDTKGFSLESFRAKASSLSEELKHFADGLETDGTLQKCFEDSNGKASDFSLEASVAEMKEYITKFSLERQTWDQLLLHYQQEAKEILSRGSTEAKITEVKVEPMTYLGSSQNEVLNTKPDYQKILQNQSKVFDCMELVMDELQGSVKQLQAFMDESTQCFQKVSVQLGKRSMQQLDPSWAAKRLKLQLQNPPAIHGSGSGSCQ chain 4: MAGSPELVVLDPPWDKELAAGTESQALVSATPREDFRVRCTSKRAVTEMLQLCGRFVQKLGDALPEEIREPALRDAQWTFESAVQENISINGQAWQEASDNCFMDSDIKVLEDQFDEIIVDIATKRKQYPRKILECVIKTIKAKQEILKQYHPVVHPLDLKYDPDPAPHMENLKCRGETVAKEISEAMKSLPALIEQGEGFSQVLRMQPVIHLQRIHQEVFSSCHRKPDAKPENFITQIETTPTETASRKTSDMVLKRKQTKDCPQRKWYPLRPKKINLDT | reduced the affinity of MIS12C for NDC80C |
|  | Dsn1-P332W R334A L336R and Nsl1-E219R V220R F221A mutants: MIS12C combining the Dsn1 and Nsl1 interface mutants (protein, left off: double strep II (DS), C-terminal, state not stated) chain 1: MSVDPMTYEAQFFGFTPQTCMLRIYIAFQDYLFEVMQAVEQVILKKLDGIPDCDISPVQIRKCTEKFLCFMKGHFDNLFSKMEQLFLQLILRIPSNILLPEDKCKETPYSEEDFQHLQKEIEQLQEKYKTELCTKQALLAELEEQKIVQAKLKQTLTFFDELHNVGRDHGTSDFRESLVSLVQNSRKLQNIRDNVEKESKRLKIS chain 2: MAEASSANLGSGCEEKRHEGSSSESVPPGTTISRVKLLDTMVDTFLQKLVAAGSYQRFTDCYKCFYQLQPAMTQQIYDKFIAQLQTSIREEISDIKEEGNLEAVLNALDKIVEEGKVRKEPAWRPSGIPEKDLHSVMAPYFLQQRDTLRRHVQKQEAENQQLADAVLAGRRQVEELQLQVQAQQQAWQALHREQRELVAVLREPE chain 3: MTSVTRSEIIDEKGPVMSKTHDHQLESSLSPVEVFAKTSASLEMNQGVSEERIHLGSSPKKGGNCDLSHQERLQSKSLHLSPQEQSASYQDRRQSWRRASMKETNRRKSLHPIHQGITELSRSISVDLAESKRLGCLLLSSFQFSIQKLEPFLRDTKGFSLESFRAKASSLSEELKHFADGLETDGTLQKCFEDSNGKASDFSLEASVAEMKEYITKFSLERQTWDQLLLHYQQEAKEILSRGSTEAKITEVKVEPMTYLGSSQNEVLNTKPDYQKILQNQSKVFDCMELVMDELQGSVKQLQAFMDESTQCFQKVSVQLGKRSMQQLDPSWAAKRLKLQLQNPPAIHGSGSGSCQ chain 4: MAGSPELVVLDPPWDKELAAGTESQALVSATPREDFRVRCTSKRAVTEMLQLCGRFVQKLGDALPEEIREPALRDAQWTFESAVQENISINGQAWQEASDNCFMDSDIKVLEDQFDEIIVDIATKRKQYPRKILECVIKTIKAKQEILKQYHPVVHPLDLKYDPDPAPHMENLKCRGETVAKEISEAMKSLPALIEQGEGFSQVLRMQPVIHLQRIHQRRASSCHRKPDAKPENFITQIETTPTETASRKTSDMVLKRKQTKDCPQRKWYPLRPKKINLDT | completely abolished MIS12C–NDC80C interactions |
|  | Nsl1-E219R V220R F221A mutant: MIS12C with E219R V220R F221A substitutions in Nsl1 (protein, left off: double strep II (DS), C-terminal, state not stated) chain 1: MSVDPMTYEAQFFGFTPQTCMLRIYIAFQDYLFEVMQAVEQVILKKLDGIPDCDISPVQIRKCTEKFLCFMKGHFDNLFSKMEQLFLQLILRIPSNILLPEDKCKETPYSEEDFQHLQKEIEQLQEKYKTELCTKQALLAELEEQKIVQAKLKQTLTFFDELHNVGRDHGTSDFRESLVSLVQNSRKLQNIRDNVEKESKRLKIS chain 2: MAEASSANLGSGCEEKRHEGSSSESVPPGTTISRVKLLDTMVDTFLQKLVAAGSYQRFTDCYKCFYQLQPAMTQQIYDKFIAQLQTSIREEISDIKEEGNLEAVLNALDKIVEEGKVRKEPAWRPSGIPEKDLHSVMAPYFLQQRDTLRRHVQKQEAENQQLADAVLAGRRQVEELQLQVQAQQQAWQALHREQRELVAVLREPE chain 3: MTSVTRSEIIDEKGPVMSKTHDHQLESSLSPVEVFAKTSASLEMNQGVSEERIHLGSSPKKGGNCDLSHQERLQSKSLHLSPQEQSASYQDRRQSWRRASMKETNRRKSLHPIHQGITELSRSISVDLAESKRLGCLLLSSFQFSIQKLEPFLRDTKGFSLESFRAKASSLSEELKHFADGLETDGTLQKCFEDSNGKASDFSLEASVAEMKEYITKFSLERQTWDQLLLHYQQEAKEILSRGSTEAKITEVKVEPMTYLGSSQNEVLNTKPDYQKILQNQSKVFDCMELVMDELQGSVKQLQAFMDESTQCFQKVSVQLGKRSMQQLDPSPARKLLKLQLQNPPAIHGSGSGSCQ chain 4: MAGSPELVVLDPPWDKELAAGTESQALVSATPREDFRVRCTSKRAVTEMLQLCGRFVQKLGDALPEEIREPALRDAQWTFESAVQENISINGQAWQEASDNCFMDSDIKVLEDQFDEIIVDIATKRKQYPRKILECVIKTIKAKQEILKQYHPVVHPLDLKYDPDPAPHMENLKCRGETVAKEISEAMKSLPALIEQGEGFSQVLRMQPVIHLQRIHQRRASSCHRKPDAKPENFITQIETTPTETASRKTSDMVLKRKQTKDCPQRKWYPLRPKKINLDT | reduced the affinity of MIS12C for NDC80C |
